Assay results reported in the RNAGym collection of RNA variant scans (doi:10.7554/elife.80360).

B1: HDV Ribozyme (parent)
chain: GGCCGGCAUGGUCCCAGCCUCCUCGCUGGCGCCGGCUGGGCAACAUUCCGAGGGGACCGUCCCCUCGGUAAUGGCGAAUGGGACCCA

Variants of: B1
Test: self-cleavage, relative activity (ratio to wild type); higher = more cleavage; co-transcriptional

Variant | self-cleavage
GGCCGGCAUGGGCCCAGCCUUCUCGCUGGCGCCGGCUGGGCAACAUUCCGAGGGGACCGUCCCCUCGGUAAUGGCGAAUGGGACCCA [U12G C21U] | 0.123
GGCCGGCAUGGCCCCAGCCUCCUCGCUGGCGCCGGCUGGGCAACAUCCCGAGGGGACCGUCCCCUCGGUAAUGGCGAAUGGGACCCA [U12C U47C] | 0.185
GGCCGGCAUGGGCUCAGCCUCCUCGCUGGCGCCGGCUGGGCAACAUUCCGAGGGGACCGUCCCCUCGGUAAUGGCGAAUGGGACCCA [U12G C14U] | 1.2
GGCCGGCAUGGCCCCAGCCUCCUCGCUGGCGCCGGCUGGGCAACAUUCCGAGGGGACCGUCCCCUCGGUAAUGGCGAAUAGGACCCA [U12C G80A] | 0.243
GGCCGGCAUGGCCCCAGCCUCCUCGCUGGCGCCGGCUGGGCAACAUUCCGAGGGGACCGUCCCCUCGGUAAUGGCGAAUCGGACCCA [U12C G80C] | 0.104
GGCCGGCAUGGCCCCAGCCUCCUCGCUGGCGCCGGCUGGGCAACAUUCCGAGGGGACCGUCCCCUCGGUAAUGGCGAAUUGGACCCA [U12C G80U] | 0.18
GGCCGGCAUGGGCCCAGCCUCCUCGCUGGGGCCGGCUGGGCAACAUUCCGAGGGGACCGUCCCCUCGGUAAUGGCGAAUGGGACCCA [U12G C30G] | 0
GGCCGGCAUGGGCCCAGCCUCCUCGCUGGCGCCGGCUGGGCAACAUUCCGAGGGGACCGUCCCCUCGGUAAUGGCGAAUGGGACCCA [U12G] | 0.922
GGCCGGCAUGGCCCCAGCCUCCUCGCUGGCGCCGGCUGGGCAACAUUCCGAGGGGACCGGCCCCUCGGUAAUGGCGAAUGGGACCCA [U12C U60G] | 0.399
GGCCGGCAUGGCCCCAGCCUCCUCGCUGGCGCCGGCUGGGCAACAUUCCGAGGGGACCGCCCCCUCGGUAAUGGCGAAUGGGACCCA [U12C U60C] | 0.594
GGCCGGCAUGGGCCCAGCCUCCUCGCUGGCGCCGGCUGGGCAACAUUCCGAGGGGCCCGUCCCCUCGGUAAUGGCGAAUGGGACCCA [U12G A56C] | 0.831
GGCCGGCAUGGGCCCAGCCUCCUCGCUGGCGCCGGCUGGGCAACAUUCCGAGGGGACCGUCCCCUCGGUAAUGGCGCAUGGGACCCA [U12G A77C] | 0
GGCCGGCAUGGGACCAGCCUCCUCGCUGGCGCCGGCUGGGCAACAUUCCGAGGGGACCGUCCCCUCGGUAAUGGCGAAUGGGACCCA [U12G C13A] | 0.415
GGCCGGCAUGGGCCCAGCCUCCUCGCUGGCGUCGGCUGGGCAACAUUCCGAGGGGACCGUCCCCUCGGUAAUGGCGAAUGGGACCCA [U12G C32U] | 0.399
GGCCGGCAUGGGCCCAGCCUCCUCGCUGGCGACGGCUGGGCAACAUUCCGAGGGGACCGUCCCCUCGGUAAUGGCGAAUGGGACCCA [U12G C32A] | 0.0639
GGCCGGCAUGGGCCCAGCCUCCUCGCUGGCGCCGGCUGGGCAACAUUCCGAGGGGACCGUCCCCUCGGUAAUGGCGAAUGGGUCCCA [U12G A83U] | 0.867

Variant | self-cleavage
GGCCGGCAUGGCCCCAGCCACCUCGCUGGCGCCGGCUGGGCAACAUUCCGAGGGGACCGUCCCCUCGGUAAUGGCGAAUGGGACCCA [U12C U20A] | 0.0723
GGCCGGCAUGGCCCCAGCCUCCUCGCUGGCGCCGGCUGGGCAACAUUCCGAGGGGACCGUCCCCUCGGUAAUGGCCAAUGGGACCCA [U12C G76C] | 0.364
GGCCGGCAUGGCCCCAGCCUCCUCGCUGGCGCCGGCUGGGCAACAUUCCGAGGGGACCGUCCCCUCGGUAACGGCGAAUGGGACCCA [U12C U72C] | 0.196
GGCCGGCAUGGGCCCUGCCUCCUCGCUGGCGCCGGCUGGGCAACAUUCCGAGGGGACCGUCCCCUCGGUAAUGGCGAAUGGGACCCA [U12G A16U] | 0.795
GGCCGGCAUGGGCCCCGCCUCCUCGCUGGCGCCGGCUGGGCAACAUUCCGAGGGGACCGUCCCCUCGGUAAUGGCGAAUGGGACCCA [U12G A16C] | 0.831
GGCCGGCAUGGGCCCAGCCUCCUCGCUGGCGCCGGCUGGGCAACAUUCCGAGGGGACCGUCCCCUCGGUUAUGGCGAAUGGGACCCA [U12G A70U] | 1.02
GGCCGGCAUGGCCCCAGCCUCCUCGCUGGCGCCGGCUGGGCAACAUUCCGAGGGGACCGUCCCCUCGGUAAUGGCGAAUGGCACCCA [U12C G82C] | 0.0504
GGCCGGCAUGGCCCCAGCCUCCACGCUGGCGCCGGCUGGGCAACAUUCCGAGGGGACCGUCCCCUCGGUAAUGGCGAAUGGGACCCA [U12C U23A] | 0.0594
GGCCGGCAUGGGCCCAGCCUCCUCGCUGGCGCCGGCUGGGCAACAUUCCGUGGGGACCGUCCCCUCGGUAAUGGCGAAUGGGACCCA [U12G A51U] | 1.13
GGCCGGCAUGGGCCCAGCCUCCUCGCUGGCGCCGGCUGGGCUACAUUCCGAGGGGACCGUCCCCUCGGUAAUGGCGAAUGGGACCCA [U12G A42U] | 0.415
GGCCGGCAUGGGCCCAGCCUCCUCGCUGGCGCCGGCUGGGCGACAUUCCGAGGGGACCGUCCCCUCGGUAAUGGCGAAUGGGACCCA [U12G A42G] | 0.369
GGCCGGCAUGGGCCCAGCCUCCUGGCUGGCGCCGGCUGGGCAACAUUCCGAGGGGACCGUCCCCUCGGUAAUGGCGAAUGGGACCCA [U12G C24G] | 0.136
GGCCGGCAUGGCCCCAGCCUCCUCGCUGGCGCCGGCUGGGCAACAGUCCGAGGGGACCGUCCCCUCGGUAAUGGCGAAUGGGACCCA [U12C U46G] | 0.0665
GGCCGGCAUGGCCCCAGCCUCCUCGCUGGCGCCGGCUGGGCAACAAUCCGAGGGGACCGUCCCCUCGGUAAUGGCGAAUGGGACCCA [U12C U46A] | 0
GGCCGGCAUGGGCCCAGCCUCCUCGCUGGCGCCGGCUGGGCAACGUUCCGAGGGGACCGUCCCCUCGGUAAUGGCGAAUGGGACCCA [U12G A45G] | 0.959
GGCCGGCAUGGGCCGAGCCUCCUCGCUGGCGCCGGCUGGGCAACAUUCCGAGGGGACCGUCCCCUCGGUAAUGGCGAAUGGGACCCA [U12G C15G] | 0
